Among the data in US20140141037A1 are Retention Volume Superdex P200 values, retold here.

The experiment concerns the target RSV F uncleavable ectodomain (Delp21Furx, the ectodomain polypeptide) (respiratory syncytial virus). As to the kind of experiment: Size exclusion chromatography of the mixture of RSV F monomer and HRA peptide; monomer alone ~75 mls, reference trimer (FP deletion) ~65 mls. (In general: Size exclusion chromatography separates by hydrodynamic size, large species first.)

For the molecule LEGEVNKIKSALLSTNKAVVSLSNGVSVLTSKVLDLKNYIDKQLLPIV [RSV F HRA peptide, RSV residues 160-207], the Retention Volume Superdex P200 was found to be 60 mL.
